Measurements taken from publication PMC11997217, “Inactivation of GH3.5 by COP1-mediated K63-linked ubiquitination promotes seedling hypocotyl elongation” (Nature Communications, 2025).

Biological target: T1, MBP-COP1 (Arabidopsis, UniProt P43254 1-675)
T1 construct: CONSTITUTIVELY PHOTOMORPHOGENIC 1 (COP1), Arabidopsis; full-length COP1 fused with MBP-tag; The plasmid for full-length MBP-COP1 is not described in the methods; only its expression and purification are; also called CONSTITUTIVELY PHOTOMORPHOGENIC 1; full-length COP1; source: E. coli BL21, purified (amylose resin); not shown: MBP, N-terminal, kept
T1 sequence (looked up): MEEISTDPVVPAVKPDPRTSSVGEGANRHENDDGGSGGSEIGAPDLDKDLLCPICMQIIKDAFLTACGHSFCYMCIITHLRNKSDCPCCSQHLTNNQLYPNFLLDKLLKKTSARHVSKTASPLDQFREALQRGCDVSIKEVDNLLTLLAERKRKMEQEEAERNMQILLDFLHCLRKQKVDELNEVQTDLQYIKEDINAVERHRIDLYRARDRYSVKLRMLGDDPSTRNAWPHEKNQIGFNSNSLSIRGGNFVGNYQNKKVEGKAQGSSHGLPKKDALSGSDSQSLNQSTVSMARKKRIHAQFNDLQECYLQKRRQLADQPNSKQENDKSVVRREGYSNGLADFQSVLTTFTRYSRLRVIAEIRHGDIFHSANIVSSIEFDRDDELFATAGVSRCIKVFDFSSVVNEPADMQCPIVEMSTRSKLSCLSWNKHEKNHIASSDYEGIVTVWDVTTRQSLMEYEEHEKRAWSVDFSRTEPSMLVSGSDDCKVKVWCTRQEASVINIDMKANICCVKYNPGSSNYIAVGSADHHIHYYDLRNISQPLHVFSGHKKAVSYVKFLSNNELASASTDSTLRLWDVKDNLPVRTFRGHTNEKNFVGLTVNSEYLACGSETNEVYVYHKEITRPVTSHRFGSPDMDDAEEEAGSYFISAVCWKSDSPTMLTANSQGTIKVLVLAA
Assay: pull-down; 1 μg GST-GH3.5 and 1 μg MBP-tagged COP1 in 25 mM Tris-HCl pH 7.5, 100 mM NaCl, 0.25% NP40, 4 °C; captured on amylose resin; washed with 500 mM NaCl, 0.5% NP40; blots with anti-MBP and anti-GST
Details: both partners purified

B1: GST-GH3.5 (enzyme, Arabidopsis, UniProt O81829 1-612, looked up)
chain: MPEAPKKESLEVFDLTLDQKNKQKLQLIEELTSNADQVQRQVLEEILTRNADVEYLRRHDLNGRTDRETFKNIMPVITYEDIEPEINRIANGDKSPILSSKPISEFLTSSGTSGGERKLMPTIEEELDRRSLLYSLLMPVMSQFVPGLENGKGMYFLFIKSESKTPGGLPARPVLTSYYKSSHFKERPYDPYTNYTSPNETILCSDSYQSMYSQMLCGLCQHQEVLRVGAVFASGFIRAIKFLEKHWIELVRDIRTGTLSSLITDPSVREAVAKILKPSPKLADFVEFECKKSSWQGIITRLWPNTKYVDVIVTGTMSQYIPTLDYYSNGLPLVCTMYASSECYFGVNLRPLCKPSEVSYTLIPSMAYFEFLPVHRNNGVTNSINLPKALTEKEQQELVDLVDVKLGQEYELVVTTYAGLCRYRVGDLLRVTGFKNKAPQFSFICRKNVVLSIDSDKTDEVELQNAVKNAVTHLVPFDASLSEYTSYADTSSIPGHYVLFWELCLDGNTPIPPSVFEDCCLAVEESFNTVYRQGRVSDKSIGPLEIKIVEPGTFDKLMDYAISLGASINQYKTPRCVKFAPIIELLNSRVVDSYFSPKCPKWVPGHKQWGSN
notes: the GH3.5 CDS inserted into BamHI/EcoRI of pGEX4T-1; also called GRETCHEN HAGEN 3.5; source: E. coli BL21, purified (Glutathione Sepharose 4B); not shown: GST, N-terminal, kept
  binding result: binds
